Reference: the RNAGym collection of RNA variant scans (doi:10.1073/pnas.2313332121)

B1: TPR t1 (parent)
chain: GACCAAUCUGCCCUCAGAGCUCGAGAACAUCUUCGGAUGCAGAGGAGGCAGGCUUCGGUGGCGCGAUAGCGCCAACGUCCUCAACCUCCAAUGCAUCCCACCACAUGAUGAUGCCUGAAGAGCCUUGGUUUUUUG

Variants of: B1
Assay: polymerase ribozyme fitness, log enrichment relative to wild type (log ratio); higher = more active; in vitro selection for triplet polymerase activity
Outline: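 Genotype fitness is the logarithm of its enrichment divided by wild-type enrichment, using inverse-variance-weighted averages of replicates. That logarithm is base 2. Enrichment was measured by Illumina sequencing of input and output libraries from one triplicate in vitro selection round, with frozen incubation at −7 °C, on PCR-built, transcribed mutant libraries of each subunit of a heterodimeric triplet polymerase ribozyme, retaining genotypes with ≥10 input reads and ≥1 read per output.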

| Variant | polymerase ribozyme fitness (log ratio) |
| --- | --- |
| GACCAAUCUGCCCUCAGAGCUCGAGAACAUCUUCGGAUGCAGAGGAGGUAGGCUUCGGUGGCUCGAUAGCGCCAACGUCCUCAACCUCCAAUGCGUCCCACCACAUGAUGAAGCCUGAAGAGCCUUGGUUUUUUG [C49U G63U A95G U112A] | -2.42 |
| GACCAAUCUGCCCUCAGAGCUCGAGAACAUCUUCGGAUGCAGAGGAGGUAGGCUUCGGUGGCGCGAUAGCACCAACGUCCUCAACCUCCAAUGCAUCCCACCACAUGAUGAUGCCUGAAGAGCCUUGGUCUUUUG [C49U G71A U130C] | -1.63 |
| GACCAAUCUGCCCUCAGAGCUCGAGAACAUCUUCGGAUGCAGAGGAGGUAGGCUUUGGUGGCGCGAUAGCGCCAACGUCCUCAACCUCCAAUGCAUCCCACCACAUGAUGAUGCCUGAAGAGCCUUGGUUUUUUG [C49U C56U] | -0.758 |
| GACCAAUCUGCCCUCAGAGCUCGAGAACAUCUUCGGAUGCAGAGGAGGUAGGCUUCGGUAGCGCGAUAGCGCCAACGUCCUCAACCUCCAAUGCAUGCCACCACAUGAUGAUGCCUGAAGAGCCUUGGUUUUUUG [C49U G60A C97G] | -5.67 |
| GACCAAUCUGCCCUCAGAGCUCGAGAACAUCUUCGGAUGCAGAGGAGGUAGGCUUCGGUGGCGCGAUAGGGCCAACGUCCUCAACCUCCAAUGCAUCCCACCACAUGAUGAUGCCUGAAGAGCCUUGGUUUUUUG [C49U C70G] | -3.77 |
| GACCAAUCUGCCCUCAGAGCUCGAGAACAUCUUCGGAUGCAGAGGAGGUAGGCUUCGGUGACGCGAUAGCGCCAACGUCCUCAACCUCCAAUGCAACCCACCACAUGAUGAUGCCUGAAGAGCCUUGGUUUUUUG [C49U G61A U96A] | -0.582 |
| GACCAAUCUGCCCUCAGAGCUCGAGAACAUCUUCGGAUGCAGAGGAGGUAGGCUUCGGUGGCGCGAUAGCGCGAACGUCCUCAACCUCCAAUGCAUCCCACCACAUGAUGAUGCCUGAAGCGCCUUGGUUUUUUG [C49U C73G A121C] | 0.163 |
| GACCAAUCUGCCCUCAGAGCUCGAGAACAUCUUCGGAUGCAGAGGAGGUAGGCUUCGGUGGCGCGAUAGCGCCAACGUCCUCAACCUCCAAUGCAUCCCACCACAUGAUGAUGCCUGAAGAGGCUUGCUUUUUUG [C49U C123G G128C] | -1.69 |
| GACCAAUCUGCCCUCAGAGCUCGAGAACAUCUUCGGAUGCAGAGGAGGUAGGCUUCGGUGGCGCGAUAGCGCUAACGUCCUCAACCUCCAAUGCAUCCCACCACAUGAUAAUGCCUGAAGAGCCUUGGUUUUUUG [C49U C73U G110A] | -1.42 |
| GACCAAUCUGCCCUCAGAGCUCGAGAACAUCUUCGGAUGCAGAGGAGGUAGGCUUCGGUGGCGCGAUAGCGCCAACGUCCUCAACCUCCAAUGCAUCCCACCACAUGAUGAUGCCUGAAGAGCUUUGGUUUAUUG [C49U C124U U132A] | 0.615 |
| GACCAAUCUGCCCUCAGAGCUCGAGAACAUCUUCGGAUGCAGAGGAGGUAGGCUUUGGUGGCGCGAUAGCGCCAACGUCCUCAACCUCCAAUGCAUCCCACCACAUGAGGAUGCCUGAAGAGCCUUGGUUUUUUG [C49U C56U U109G] | -5.37 |
| GACCAAUCUGCCCUCAGAGCUCGAGAACAUCUUCGGAUGCAGAGGAGGUAAGCUUCGGUGGCGCGAUAGCGCCAACGUCCUCAACCUCCAAUGCAUCCCACCACAUGAUGAUGCCUGAAGAGCCUUGGUUUUUUG [C49U G51A] | -1.4 |
| GACCAAUCUGCCCUCAGAGCUCGAGAACAUCUUCGGAUGCAGAGGAGGUAGGCUUCGGUGGCGCGAUAGCGCCAACGUCCUCAACCUCCAAUGCAUCCCACCACAUGAUGAUGCCUGAAGAGCCUUGCUUUUUUG [C49U G128C] | -2.44 |
| GACCAAUCUGCCCUCAGAGCUCGAGAACAUCUUCGGAUGCAGAGGAGGUAGGCUUCGGUGGCGCGAUAUCGCCAACGUCCUCAACCUCCAAUGCAUCCCACCACAUGAUGAUGCCUGAAGCGCCUUGGUUUUUUG [C49U G69U A121C] | 1.51 |
| GACCAAUCUGCCCUCAGAGCUCGAGAACAUCUUCGGAUGCAGAGGAGGUAGGCUUCGGAGGCGCGAUAGCGCCAACGCCCUCAGCCUCCAAUGCAUCCCACCACAUGAUGAUGCCUGAAGAGCCUUGGUUUUUUG [C49U U59A U78C A84G] | -1.51 |
| GACCAAUCUGCCCUCAGAGCUCGAGAACAUCUUCGGAUGCAGAGGAGGUAGGUUUCGGUGGCGCGAUAGCGCCAACGUCCUCAACCUCCAAUGCAUUCCACCACAUGAUGAUGCCUGAAGAGCCUUGGUUUUUUG [C49U C53U C97U] | -1.14 |
| GACCAAUCUGCCCUCAGAGCUCGAGAACAUCUUCGGAUGCAGAGGAGGUAGGCUUAGGUGGCGCGAUGGCGCCAACGUCCUCAACCUCCAAUGCAUCCCACCACAUGAUGAUGCCUGAAGAGCCUUGGUUUUUUG [C49U C56A A68G] | -5.08 |
| GACCAAUCUGCCCUCAGAGCUCGAGAACAUCUUCGGAUGCAGAGGAGGUAGGCUUCGGUGGCGCGAUAGCGCUAACGCCCUCAACCUCCAAUGCAUCCCACCACAUGAUUAUGCCUGAAGAGCCUUGGUUUUUUG [C49U C73U U78C G110U] | -2.87 |
| GACCAAUCUGCCCUCAGAGCUCGAGAACAUCUUCGGAUGCAGAGGAGGUAGGCUUCGGUGGCGCGAUAGCGCCAACGUGCUCAACCUCCAAUGCAUCCCACCAAAUGAUGAUGCCUGAAGAGCCUUGGUUUUUUG [C49U C79G C104A] | -5.16 |
| GACCAAUCUGCCCUCAGAGCUCGAGAACAUCUUCGGAUGCAGAGGAGGUAAGCUUCGGUGGCGCGAUAGCGCCAACGUCCUCAACCUACAAUGCAUCCCACCACAUGAUGAUGCCUGAAGAGCCUUGGUUUUUUG [C49U G51A C88A] | -3.64 |
| GACCAAUCUGCCCUCAGAGCUCGAGAACAUCUUCGGAUGCAGAGGAGGUAGGCUUCGGUGGCGCGAUAGCGCCAACGUCCUCAACCUCCAAUGCAUCCCACCACAUGAUGAUGCCUGAAGAGCUUUGGUUUUUUG [C49U C124U] | 1.03 |

| Variant | polymerase ribozyme fitness (log ratio) |
| --- | --- |
| GACCAAUCUGCCCUCAGAGCUCGAGAACAUCUUCGGAUGCAGAGGAGGUAGGCUUCGGUGGCGCGAUAGCGGCAACGCCCUCAACCUCCAAUGCAUCCCACCACAUGAUGAUGCCUGAAGAGCCUUGGUUUUUUG [C49U C72G U78C] | -1.33 |
| GACCAAUCUGCCCUCAGAGCUCGAGAACAUCUUCGGAUGCAGAGGAGGUAGGAUUCGGUGGCGCGAUAGCGCCAACGUCCUCAACCUCCAAUGCAUCCCACCACAUGAUGCUGCCUGAAGAGCCUUGGUUUUUUG [C49U C53A A111C] | -0.429 |
| GACCAAUCUGCCCUCAGAGCUCGAGAACAUCUUCGGAUGCAGAGGAGGUAGGCUUCGGUGGCGCGAUAGCGCCAACGUCCUGAACCUCCAAUGCAUCCCACCACAUGAUGAUGCCUGAAGAGCCUUGGUUUUUUG [C49U C82G] | -0.241 |
| GACCAAUCUGCCCUCAGAGCUCGAGAACAUCUUCGGAUGCAGAGGAGGUAGGCUUCGGUGGCGCGAUAGCGCCAACGUCCUUAACCUCCAAUGCAUCCCACCACAUGAUGAUGCCUGAAGAGCCUUGGUUUUUUG [C49U C82U] | -0.598 |
| GACCAAUCUGCCCUCAGAGCUCGAGAACAUCUUCGGAUGCAGAGGAGGUAGGCUUCGGUGGCGCGAUAGCGCCAACGUCCUAAACCUCCAAUGCAUCCCACCACAUGAUGAUGCCUGAAGAGCCUUGGUUUUUUG [C49U C82A] | -0.514 |
| GACCAAUCUGCCCUCAGAGCUCGAGAACAUCUUCGGAUGCAGAGGAGGUAGGCUUCGGUGGCGCGAUAGCGCCAACGUCCUCAACCUCCAAUGCAUCCCACCACAUGAUGAUGCCUGAAGAGCCUUGGUUUUUUC [C49U G135C] | -0.277 |
| GACCAAUCUGCCCUCAGAGCUCGAGAACAUCUUCGGAUGCAGAGGAGGUAGGCUUCGGUGGCGCGAUAGCGUCAACGUCCUCAACCUCCAAUGCAUCCCACCACAUGAUGAUGCUUGAAGAGGCUUGGUUUUUUG [C49U C72U C115U C123G] | -2.4 |
| GACCAAUCUGCCCUCAGAGCUCGAGAACAUCUUCGGAUGCAGAGGAGGUAGGCUUCGGUGGCGCGAUAGCGCCAACGUCCUCAACCUCCAAUGCAUUCCACCACAUGAUGAUGCCUGAAGAGCCUUGGUUUUUUG [C49U C97U] | -1.01 |
| GACCAAUCUGCCCUCAGAGCUCGAGAACAUCUUCGGAUGCAGAGGAGGUAGGCUUCUGUGGCGCGAUAGCGCCAACGUUCUCAACCUCCAAUGCAUCCCAACACAUGAUGAUGCCUGAAGAGCCUUGUUUUUUUG [C49U G57U C79U C101A G128U] | -4.04 |
| GACCAAUCUGCCCUCAGAGCUCGAGAACAUCUUCGGAUGCAGAGGAGGUAGGCUUCGGUGGCGCGAUAGCGCCAACGUCCUCAACCUCCAAUGCAUCCCACCACAUGAUGAUUCCUUAAGAGCCUUGGUUUUUUG [C49U G113U G117U] | -5.67 |
| GACCAAUCUGCCCUCAGAGCUCGAGAACAUCUUCGGAUGCAGAGGAGGUAGGCUUCGGUGGUGCGAUAGCGCCAACGUCCUCAACCUCCAAUGCAUCCCACCACAUGAUGAUGCCUGUAGAGCCUUGGUUUUUUG [C49U C62U A118U] | -0.00141 |
| GACCAAUCUGCCCUCAGAGCUCGAGAACAUCUUCGGAUGCAGAGGAGGUAGGCUUCGGUGGCGCGAUAGCGCCAACGUCCUUAACCUCCAAUGCAUCCCACCACAUGAUGAUGCCUGAAGUGCCUUAGUUUUUUG [C49U C82U A121U G127A] | 0.337 |
| GACCAAUCUGCCCUCAGAGCUCGAGAACAUCUUCGGAUGCAGAGGAGGUAGGCUUCGGUGGCGCGAUAGCGCCAACGUCCUCAACCUCCAAUGCAUCCCACCACAUGAUGAUGCCUGAAAAGCCUUGGUUUUUUG [C49U G120A] | 0.0229 |
| GACCAAUCUGCCCUCAGAGCUCGAGAACAUCUUCGGAUGCAGAGGAGGUAGGUUUCGGUGGCGCGAUAGCGCCAACGUCCUCAACCUCUAAUGCAUCCCACCACAUGAUGAUGCCUGAAGAGCCUUGGUUUUUUG [C49U C53U C89U] | -0.369 |
| GACCAAUCUGCCCUCAGAGCUCGAGAACAUCUUCGGAUGCAGAGGAGGUAGGCUUCGGUGGCGCGAUAGCGCCAACGUCCUCAACCUCCAAUGCAUCCCACGAAAUGAUGAUGCCUGAAGAGCAUUGGUAUUUUG [C49U C102G C104A C124A U130A] | -4.4 |
| GACCAAUCUGCCCUCAGAGCUCGAGAACAUCUUCGGAUGCAGAGGAGGUAGGCUUCGGUGGCGCGAUAUCGCCAACGUCCUCAACCUCCAAUGCAUCCCACCACAUGAUGAUGCCUGAAGAGCCUUGGUUUUUUG [C49U G69U] | 0.911 |
| GACCAAUCUGCCCUCAGAGCUCGAGAACAUCUUCGGAUGCAGAGGAGGUAGGCUUCGGUGGCGCGAUACCGCCAACGUCCUCAACCUCCAAUGCAUCCCACCACAUGAUGAUGCCUGAAGAGCCUUGGUUUUUUG [C49U G69C] | -1.79 |
| GACCAAUCUGCCCUCAGAGCUCGAGAACAUCUUCGGAUGCAGAGGAGGUAGGCUUCGGUGGCGCGAUAGCGCCAAGGUCCUCAACCUCCAAUGCAUCCCACCACAUGAUGAUACCUGAAGAGCCUUGGUUUUUUG [C49U C76G G113A] | -1.81 |
| GACCAAUCUGCCCUCAGAGCUCGAGAACAUCUUCGGAUGCAGAGGAGGUAGGCUUCGGUGGCGCGAUAGCGCCAAUGUCCACAACCUACAAUGCAUCCCACCACAUGAUGAUGCCUGAAGAGCCUUGGUUUUUUG [C49U C76U U81A C88A] | -3.72 |
| GACCAAUCUGCCCUCAGAGCUCGAGAACAUCUUCGGAUGCAGAGGAGGUAUGCUUCGGUGGUGCGAUAGCGCCAACGUCAUCAACCUCCAAUGCAUCCCACCACAUGAUGAUACCUGAAGAGCAUUGGUUUUUUG [C49U G51U C62U C80A G113A C124A] | -3.94 |
| GACCAAUCUGCCCUCAGAGCUCGAGAACAUCUUCGGAUGCAGAGGAGGUAGGCUUCGGUGGCGCGAUAGCGCCAACGUCCUCAAACUCCAAUGCAUCCCACCACAUGAUGAUGCCUGAAGAGCCUUGGUUUUUUG [C49U C85A] | -2.47 |
